Results as given in US20200024360A1 (Janssen / Centocor, published 2020).

Assays:
[1] = target: T1, human PSMA (prostate specific membrane antigen), full length (human, UniProt Q04609 1-750); assay: cell-based or functional assay
[2] = target: T1, human PSMA (prostate specific membrane …); assay: flow cytometry cell binding assay, bispecific antibody titrated on LNCaP cells (human PSMA)
Method: (§1) PSMA×CD3 bispecific antibodies were tested for binding to PSMA positive cell lines LNCAP, human PSMA-HEK, Chimpanzee-PSMA-HEK and Cynomolgous monkey PSMA-HEK. To assess the binding capabilities of the PSMA bispecific antibodies, the cell-binding assay was utilized (described previously). Briefly, PSMA expressing tumor cells are bound by bispecific antibodies at known concentrations and the bound antibody is detected by an anti-human kappa light chain PE conjugated detection reagent (Invitrogen). The Mean Fluorescents Intensity (MFI) is the measure of bound bispecific antibody. The MFI is converted to a relative EC₅₀. EC₅₀ is a commonly used dose-response curve, where the half maximal effective concentration or the EC₅₀ point is defined as the inflection point of the curve. EC₅₀ s were determined by measuring cell bound bispecific and known concentrations. […] The dose response curves were then diluted down to that of background or no bispecific binding. The inflection point of this curve reflects the EC₅₀ point. The calculated EC₅₀ is determined by taking the ug/ml amount of bispecific antibody at the EC₅₀ point and converting it to a molarity value based on the MW of the bispecific antibody. Bispecific antibodies were normalized for protein concentration and then incubated with the same number of cells expressing either human or cyno PSMA. The MFI at each concentration was collected by flow cytometry and plotted as a function of concentration. Data was transformed via log 10 and then plotted. Nonlinear regression of binding curves was done to determine EC₅₀ s. These relative values were used for ranking PSMA binding to target cells.
PSMA×CD3 bispecific antibodies were tested for binding to PSMA positive cell line, LNCAP, to PSMA negative cell line, PC3. To assess the binding capabilities of the PSMA bispecific antibodies, the cell-binding assay was utilized (described previously). Bispecific antibodies were normalized for protein concentration and then incubated with the same number of cells expressing either human or cyno PSMA. The MFI at each concentration was collected by flow cytometry and plotted as a function of concentration.

[3] = target: T1, human PSMA (prostate specific membrane …); assay: flow cytometry, bispecific antibody titrated on LNCaP cells (human PSMA), anti-human kappa light chain PE
Method: as §1

[4] = target: T1, human PSMA (prostate specific membrane …); assay: FACS, whole cell binding
[5] = target: T2, Cynomolgous monkey PSMA, full length (Macaca fascicularis, UniProt Q04609 1-750 (human entry)); assay: FACS, whole cell binding
T2 construct: On transfected HEK293F cells; also called cyno PSMA; EHH56646.1
T2 chain: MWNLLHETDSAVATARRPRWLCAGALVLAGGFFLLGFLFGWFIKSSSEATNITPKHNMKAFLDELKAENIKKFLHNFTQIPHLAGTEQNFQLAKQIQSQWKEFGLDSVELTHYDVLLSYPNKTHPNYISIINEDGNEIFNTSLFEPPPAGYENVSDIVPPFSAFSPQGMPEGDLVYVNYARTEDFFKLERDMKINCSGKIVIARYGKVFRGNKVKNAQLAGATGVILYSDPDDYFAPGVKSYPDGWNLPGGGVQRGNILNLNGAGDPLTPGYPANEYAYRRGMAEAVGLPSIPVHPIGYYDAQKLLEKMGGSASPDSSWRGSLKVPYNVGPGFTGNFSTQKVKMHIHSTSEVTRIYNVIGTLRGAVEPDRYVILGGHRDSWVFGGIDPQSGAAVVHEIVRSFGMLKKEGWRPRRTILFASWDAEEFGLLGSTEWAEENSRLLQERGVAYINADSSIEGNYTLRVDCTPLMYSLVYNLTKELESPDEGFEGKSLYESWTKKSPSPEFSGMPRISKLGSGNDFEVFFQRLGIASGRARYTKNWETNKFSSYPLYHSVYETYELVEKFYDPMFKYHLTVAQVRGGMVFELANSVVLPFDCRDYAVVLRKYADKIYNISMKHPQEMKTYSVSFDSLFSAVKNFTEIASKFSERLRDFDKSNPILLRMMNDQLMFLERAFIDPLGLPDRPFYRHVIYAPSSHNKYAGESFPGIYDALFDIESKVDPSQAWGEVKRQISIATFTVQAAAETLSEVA

[6] = target: T3, chimpanzee PSMA, full length (Pan troglodytes, UniProt Q04609 1-750 (human entry)); assay: flow cytometry, bispecific antibody titrated on chimp PSMA (PSMG9) HEK cells, anti-human kappa light chain PE
T3 construct: On transfected HEK293F cells; also called chimp PSMA; H2Q3K5_PANTR
T3 chain: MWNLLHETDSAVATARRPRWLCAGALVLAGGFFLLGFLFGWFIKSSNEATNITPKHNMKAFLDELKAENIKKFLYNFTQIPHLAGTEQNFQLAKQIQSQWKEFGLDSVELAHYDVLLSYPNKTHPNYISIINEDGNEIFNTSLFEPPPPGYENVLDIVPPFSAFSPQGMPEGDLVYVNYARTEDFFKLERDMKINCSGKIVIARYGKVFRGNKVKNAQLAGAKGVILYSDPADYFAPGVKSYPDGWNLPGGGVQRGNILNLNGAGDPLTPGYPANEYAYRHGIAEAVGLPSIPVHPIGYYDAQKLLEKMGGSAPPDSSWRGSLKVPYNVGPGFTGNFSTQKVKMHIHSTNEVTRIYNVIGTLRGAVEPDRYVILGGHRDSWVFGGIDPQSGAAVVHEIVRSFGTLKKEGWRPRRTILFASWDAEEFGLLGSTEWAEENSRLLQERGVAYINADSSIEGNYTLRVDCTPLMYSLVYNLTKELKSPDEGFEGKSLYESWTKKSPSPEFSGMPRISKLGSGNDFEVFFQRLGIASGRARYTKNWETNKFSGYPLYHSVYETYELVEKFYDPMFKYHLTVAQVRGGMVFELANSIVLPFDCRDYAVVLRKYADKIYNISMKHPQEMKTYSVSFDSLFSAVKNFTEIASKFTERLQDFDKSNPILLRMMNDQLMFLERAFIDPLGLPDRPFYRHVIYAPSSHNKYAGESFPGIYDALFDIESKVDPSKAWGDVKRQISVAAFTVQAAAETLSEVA
Method: as §1, with “The MFI at each concentration was collected by flow cytometry and plotted as a function of concentration. Data was transformed via log 10 and then plotted. Nonlinear regression of binding curves was done to determine EC₅₀ s. These relative values were used for ranking PSMA binding to target cells.” left out

B1: PS3B27 (bispecific antibody, human IgG4 S228P, kappa, lambda, F234A L235A)
heavy 1: not shown
light 1: not shown
heavy 2: EVQLVESGGGLVQPGGSLRLSCAASGFTFNTYAMNWVRQAPGKGLEWVARIRSKYNNYATYYAASVKGRFTISRDDSKNSLYLQMNSLKTEDTAVYYCARHGNFGNSYVSWFAYWGQGTLVTVSSASTKGPSVFPLAPCSRSTSESTAALGCLVKDYFPEPVTVSWNSGALTSGVHTFPAVLQSSGLYSLSSVVTVPSSSLGTKTYTCNVDHKPSNTKVDKRVESKYGPPCPPCPAPEAAGGPSVFLFPPKPKDTLMISRTPEVTCVVVDVSQEDPEVQFNWYVDGVEVHNAKTKPREEQFNSTYRVVSVLTVLHQDWLNGKEYKCKVSNKGLPSSIEKTISKAKGQPREPQVYTLPPSQEEMTKNQVSLTCLVKGFYPSDIAVEWESNGQPENNYKTTPPVLDSDGSFLLYSKLTVDKSRWQEGNVFSCSVMHEALHNHYTQKSLSLSLGK
light 2: QTVVTQEPSLTVSPGGTVTLTCRSSTGAVTTSNYANWVQQKPGQAPRGLIGGTNKRAPGTPARFSGSLLGGKAALTLSGVQPEDEAEYYCALWYSNLWVFGGGTKLTVLGQPKAAPSVTLFPPSSEELQANKATLVCLISDFYPGAVTVAWKADSSPVKAGVETTTPSKQSNNKYAASSYLSLTPEQWKSHRSYSCQVTHEGSTVEKTVAPTECS
notes: IgG4 PAA; PSMA arm chains first, then CD3 arm (F405L, R409K); also called PSMB127 x CD3B219; PS2B27
In the case of B1, the “EC50, T-cell dependent cytotoxicity (caspase 3/7), C-42B, donor M2550” value [1] is reported as 110 pM, the “EC50, T-cell dependent cytotoxicity (caspase 3/7), C-42B, donor M5524” value [1] is reported as 60 pM and the “EC50, T-cell dependent cytotoxicity (caspase 3/7), C-42B, donor M5772” value [1] is reported as 30 pM. The “EC50, T-cell dependent cytotoxicity (caspase 3/7), C-42B, donor M7259” value [1] was 60 pM, the “EC50, T-cell dependent cytotoxicity (caspase 3/7), C-42B, donor M7444” value [1] was 50 pM and the “EC50, T-cell dependent cytotoxicity (caspase 3/7), LNCaP FGc, donor M2550” value [1] was 270 pM. For the same binder, the “EC50, T-cell dependent cytotoxicity (caspase 3/7), LNCaP FGc, donor M5524” value [1] was 90 pM, the “EC50, T-cell dependent cytotoxicity (caspase 3/7), LNCaP FGc, donor M5772” value [1] was 40 pM and the “EC50, T-cell dependent cytotoxicity (caspase 3/7), LNCaP FGc, donor M7259” value [1] was 50 pM. For the same binder, the “EC50, T-cell dependent cytotoxicity (caspase 3/7), LNCaP FGc, donor M7444” value [1] was 90 pM and the “EC50 (read off the curve)” value [2] was about 7000 pM.

B2: PS3B23 (bispecific antibody, human IgG4 S228P, kappa, lambda, F234A L235A)
heavy 1: not shown
light 1: not shown
heavy 2: EVQLVESGGGLVQPGGSLRLSCAASGFTFNTYAMNWVRQAPGKGLEWVARIRSKYNNYATYYAASVKGRFTISRDDSKNSLYLQMNSLKTEDTAVYYCARHGNFGNSYVSWFAYWGQGTLVTVSSASTKGPSVFPLAPCSRSTSESTAALGCLVKDYFPEPVTVSWNSGALTSGVHTFPAVLQSSGLYSLSSVVTVPSSSLGTKTYTCNVDHKPSNTKVDKRVESKYGPPCPPCPAPEAAGGPSVFLFPPKPKDTLMISRTPEVTCVVVDVSQEDPEVQFNWYVDGVEVHNAKTKPREEQFNSTYRVVSVLTVLHQDWLNGKEYKCKVSNKGLPSSIEKTISKAKGQPREPQVYTLPPSQEEMTKNQVSLTCLVKGFYPSDIAVEWESNGQPENNYKTTPPVLDSDGSFLLYSKLTVDKSRWQEGNVFSCSVMHEALHNHYTQKSLSLSLGK
light 2: QTVVTQEPSLTVSPGGTVTLTCRSSTGAVTTSNYANWVQQKPGQAPRGLIGGTNKRAPGTPARFSGSLLGGKAALTLSGVQPEDEAEYYCALWYSNLWVFGGGTKLTVLGQPKAAPSVTLFPPSSEELQANKATLVCLISDFYPGAVTVAWKADSSPVKAGVETTTPSKQSNNKYAASSYLSLTPEQWKSHRSYSCQVTHEGSTVEKTVAPTECS
notes: IgG4 PAA; PSMA arm chains first, then CD3 arm (F405L, R409K); also called PSMB123 x CD3B219
B2: binds [3].

B3: PS3B30 (bispecific antibody, human IgG4 S228P, kappa, lambda, F234A L235A)
heavy 1: not shown
light 1: not shown
heavy 2: EVQLVESGGGLVQPGGSLRLSCAASGFTFNTYAMNWVRQAPGKGLEWVARIRSKYNNYATYYAASVKGRFTISRDDSKNSLYLQMNSLKTEDTAVYYCARHGNFGNSYVSWFAYWGQGTLVTVSSASTKGPSVFPLAPCSRSTSESTAALGCLVKDYFPEPVTVSWNSGALTSGVHTFPAVLQSSGLYSLSSVVTVPSSSLGTKTYTCNVDHKPSNTKVDKRVESKYGPPCPPCPAPEAAGGPSVFLFPPKPKDTLMISRTPEVTCVVVDVSQEDPEVQFNWYVDGVEVHNAKTKPREEQFNSTYRVVSVLTVLHQDWLNGKEYKCKVSNKGLPSSIEKTISKAKGQPREPQVYTLPPSQEEMTKNQVSLTCLVKGFYPSDIAVEWESNGQPENNYKTTPPVLDSDGSFLLYSKLTVDKSRWQEGNVFSCSVMHEALHNHYTQKSLSLSLGK
light 2: QTVVTQEPSLTVSPGGTVTLTCRSSTGAVTTSNYANWVQQKPGQAPRGLIGGTNKRAPGTPARFSGSLLGGKAALTLSGVQPEDEAEYYCALWYSNLWVFGGGTKLTVLGQPKAAPSVTLFPPSSEELQANKATLVCLISDFYPGAVTVAWKADSSPVKAGVETTTPSKQSNNKYAASSYLSLTPEQWKSHRSYSCQVTHEGSTVEKTVAPTECS
notes: IgG4 PAA; PSMA arm chains first, then CD3 arm (F405L, R409K); also called PSMB130 x CD3B219
B3 gave an EC50 [4] of 8000 to 8500 pM and an EC50 [5] of 37800 to 57000 pM.

B4: PS3B25 (bispecific antibody, human IgG4 S228P, kappa, lambda, F234A L235A)
heavy 1: not shown
light 1: not shown
heavy 2: EVQLVESGGGLVQPGGSLRLSCAASGFTFNTYAMNWVRQAPGKGLEWVARIRSKYNNYATYYAASVKGRFTISRDDSKNSLYLQMNSLKTEDTAVYYCARHGNFGNSYVSWFAYWGQGTLVTVSSASTKGPSVFPLAPCSRSTSESTAALGCLVKDYFPEPVTVSWNSGALTSGVHTFPAVLQSSGLYSLSSVVTVPSSSLGTKTYTCNVDHKPSNTKVDKRVESKYGPPCPPCPAPEAAGGPSVFLFPPKPKDTLMISRTPEVTCVVVDVSQEDPEVQFNWYVDGVEVHNAKTKPREEQFNSTYRVVSVLTVLHQDWLNGKEYKCKVSNKGLPSSIEKTISKAKGQPREPQVYTLPPSQEEMTKNQVSLTCLVKGFYPSDIAVEWESNGQPENNYKTTPPVLDSDGSFLLYSKLTVDKSRWQEGNVFSCSVMHEALHNHYTQKSLSLSLGK
light 2: QTVVTQEPSLTVSPGGTVTLTCRSSTGAVTTSNYANWVQQKPGQAPRGLIGGTNKRAPGTPARFSGSLLGGKAALTLSGVQPEDEAEYYCALWYSNLWVFGGGTKLTVLGQPKAAPSVTLFPPSSEELQANKATLVCLISDFYPGAVTVAWKADSSPVKAGVETTTPSKQSNNKYAASSYLSLTPEQWKSHRSYSCQVTHEGSTVEKTVAPTECS
notes: IgG4 PAA; also called PSMB87 x CD3B219
B4: binds [6].
